Measurements published in patent US20250027068.
Residue numbers refer to the chain shown, from its start.

B1: PRT-692 (protein)
chain: MQITSVWTKGVTPPTPEQFRYNNEDVIHAPYLPNQGWYDITKTFNGGDNLLCGAATAGNMLHWWFDQNKTEIEAYLSKYPEKQKIIFNNQELFDLRAAINSKDSQTNSQLFNYFRDKAFPNLSARQLGVMPDLVLDMFINGYYLNVFKTQSTDVNRPYQDPDKRGGIFDDVFKEGDQTTLLTARHDLKNGTLNDISTLIKQELQSGKALALSHTYANVSISHVINLWGADFNAEGNLEAIYVTDSDANQSIGMKKYKVGVNAHGKVAISAKKIEGENIGAQVLGLFTLSSGKEIWQKLSLEHHHHHH
B2: PRT-623 (protein)
chain: MQITTVWTKGVTPLTPEQFRYNNEDVIHAPYLAHQGWYDITKAFDGKDNLLCGAATAGNMLHWWFDQNKTEIEAYLSKHPEKQKIIFNNQELFDLKAAIDTKDSQTNSQLFNYFRDKAFPNLSARQLGVMPDLVLDMFINGYYLNVFKTQSTDVNRPYQDKDKRGGIFDAVFTRGDQTTLLTARHDLKNGTLNEISQIIKQELQSGRALALSHTYANVSISHVINLWGADFNAEGNLIAIYVTDSDANASIGMKKYFVGINAHGHVAISAKKIEGENIGAQVLGLFTLSSGKDIWQKLSLEHHHHHH
B3: PRT-696 (protein)
chain: MTITSVWTKGVTPPTPEDFRYNNEDVLHAPYVPNQGWYDITKTFDGGDNLLCGAATAGNMLHWWFDQNKEEIERYLKKYPEKQKIIFNNQELFDVRAAINSKDSQTNSKLFNYFRDKAFPNLSARQLGVMPDLVLDMFINGYYLNLGKTQSTDVNRPYQDPDKRGGIFDDVFKEGDQTTLLTARHDLKNGGLNEISDLIKQELQSGKALALSHTYANVRINHVINLWGADFDAEGNLIAIYVTDSDANQSIGMKKYKVGVNANGKVAISAKKIEGDNIGAQVLGLFTLSTGQEIWQKLSLEHHHHHH
B4: PRT-549 (protein)
chain: MANQEIRYSEDTPSHITSVWTKGVTPPTQFIQNEDVLHAPYIANQGWYDITKTFNGKDDLLCGAATAGNMLHWWFDQNKEQIEAYLKKYPEKQKINFNGEQMFDVKEAIDTKDSQTDSALFNYFKDKAFPYLSTKHLGVFPDHVIDMFINGYRLSLTNHGPTPVKNQTKDPRGGIFDAVFTRGDQSKLLTARHDFKEKTLKEISQLIKQELTEGKALGLSHTYANVRINHVINLWGADFNAEGNLEAIYVTDSDSNASIGMKKYYVGVNAAGKVAISAKEIEGDNIGAQVLGLFTLSTGQDIWQQTNLEHHHHHH
B5: PRT-637 (protein)
chain: MQITSVWTKGVTPLTPEQFRYNNEDVIHAPYLAHQGWYDITKAFDGGDGLLCGAATAGNMLHWWFDQNKTEIEAYLSKHPEKQKIIFNNQELFDLKAAIDTKDSQTNSQLFNYFRDKAFPNLSARQKGVMPDLVLDMFINGYYLNVFKTQSTDVNRPYQDKDKRGGIFDAVFTRGDQTTLLTARHDLKNKGLNDISTIIKQELTEGRALALSHTYANVSISHVINLWGADFNAEGNLEAIYVTDSDAGNGIGMKKYFVGINAHGHVAISAKKIEGENIGAQVLGLFTLSSGKDIWQKLSLEHHHHHH
B6: PRT-625 (protein)
chain: B5 chain with G47K, G49N, K127L, Y158E, Q159D, A170H, T178S, G248N, N249A, G250S
B7: PRT-644 (protein)
chain: B5 chain with G47K, G49N, K127L, G248N, N249A, G250S, F257Y, I260K, H263S, G275D
B8: PRT-647 (protein)
chain: B5 chain with G47K, G49N, K127L, A183N, H185Y, K188Y, N189D, G248N, N249A, G250S
B9: PRT-650 (protein)
chain: B5 chain with G47K, G49N, E91K, K127L, F147T, D160T, K163P, G248N, N249A, G250S
B10: PRT-621 (protein)
chain: B2 chain with T5S, G190K, Q204S, I238E
B11: PRT-657 (protein)
chain: MQITSVWTKGVTPLTPEQFRYNNEDVIHAPYLAHQGWYDITKAFDGKDNLLCGAATAGNMLHWWFDQNKTEIEAYLSKHPEKQKIIFNNQELFDLREAINTKDSQTDSKLFNYFRDKAFPNLSARQLGVMPDLVLDMFINGYYLNVFKTQSTDVNRPYQDKDKRGGIFDAVFTRGDQTTLLTARHDLKNKGLNDISTIIKQELTEGRALALSHTYANVSISHVINLWGADFNAEGNLEAIYVTDSDANASIGMKKYFVGINAHGHVAISAKKIEGENIGAQVLGLFTLSSGKDIWQKLSLEHHHHHH
B12: PRT-681 (protein)
chain: B11 chain with H79Y, E97A, D107N, K109Q, F257Y, D293E
B13: PRT-642 (protein)
chain: B5 chain with A43T, D45N, G46R, G49N, K127G, G248D, N249E, G250K
B14: PRT-633 (protein)
chain: B11 chain with R20T, Y21N, L32K, H34N, R96K, E97A, N100D, D107N, K109Q, R207K
B15: PRT-663 (protein)
chain: MQITSVWTKGVTPPTPEQFRYNNEDVIHAPYLAHQGWYDITKTFDGKDNLLCGAATAGNMLHWWFDQNKTEIEAYLSKHPEKQKIIFNNQELFDLKEAINTKDSQTNSQLFNYFRDKAFPNLSARQLGVMPDLVLDMFINGYYLNVFKTQSTDVNRPYQDKDKRGGIFDAVFTRGDQTKLLTARHDLKNKGLNEISTLIKQELTEGKALALSHTYANVSISHVINLWGADFNAEGNLEAIYVTDSDANASIGMKKYFVGINASGHVAISAKKIEGENIGAQVLGLFTLSTGKDIWQKLSLEHHHHHH
B16: PRT-619 (protein)
chain: B2 chain with T191G, N193E, E194D, Q197T, Q204K, S205N, I238S
B17: PRT-697 (protein)
chain: B3 chain with T12I, S101T, P161R, D170H, K173G, E174R, Q249S, K257Y
B18: PRT-568 (protein)
chain: B4 chain with D11A, E80T, A84N, Y89H, N122S, N166R, K201N, K273H

target: pooled human IgG (human IgG1, 2, 3 and 4)

Protein | Enzyme Activity Endpoint Assay (purified): Fab′2 | Enzyme Activity Endpoint Assay (purified): Fc | Enzyme Activity Endpoint Assay (purified): IgG | Enzyme Activity Endpoint Assay (purified): scIgG
B1 | 442 ng/µL | 44 ng/µL | 429 ng/µL | 38 ng/µL
B2 | 433 ng/µL | 260 ng/µL | 0 ng/µL | 157 ng/µL
B3 | 58 ng/µL | 0 ng/µL | 1020 ng/µL | 19 ng/µL
B4 | 725 ng/µL | 491 ng/µL | 0 ng/µL | 279 ng/µL
B5 | 278 ng/µL | 188 ng/µL | 464 ng/µL | 602 ng/µL
B6 | 451 ng/µL | 405 ng/µL | 78 ng/µL | 531 ng/µL
B7 | 882 ng/µL | 518 ng/µL | 0 ng/µL | 355 ng/µL
B8 | 777 ng/µL | 465 ng/µL | 0 ng/µL | 330 ng/µL
B9 | 522 ng/µL | 452 ng/µL | 130 ng/µL | 600 ng/µL
B10 | 976 ng/µL | 514 ng/µL | 0 ng/µL | 0 ng/µL
B11 | 430 ng/µL | 250 ng/µL | 0 ng/µL | 0 ng/µL
B12 | 915 ng/µL | 492 ng/µL | 0 ng/µL | 0 ng/µL
B13 | 175 ng/µL | 260 ng/µL | 360 ng/µL | 760 ng/µL
B14 | 749 ng/µL | 429 ng/µL | 0 ng/µL | 0 ng/µL
B15 | 825 ng/µL | 456 ng/µL | 0 ng/µL | 0 ng/µL
B16 | 140 ng/µL | 283 ng/µL | 102 ng/µL | 591 ng/µL
B17 | 701 ng/µL | 430 ng/µL | 221 ng/µL | 161 ng/µL
B18 | 880 ng/µL | 402 ng/µL | 0 ng/µL | 0 ng/µL
